Changes are numbered by the printed parent chain. In names and notes the source's numbering stands.
Legend:
Experiment in all cases: cell-based or functional assay
[1] = target: T1, human G-CSF receptor (human, UniProt Q99062 25-836)
T1 sequence (looked up): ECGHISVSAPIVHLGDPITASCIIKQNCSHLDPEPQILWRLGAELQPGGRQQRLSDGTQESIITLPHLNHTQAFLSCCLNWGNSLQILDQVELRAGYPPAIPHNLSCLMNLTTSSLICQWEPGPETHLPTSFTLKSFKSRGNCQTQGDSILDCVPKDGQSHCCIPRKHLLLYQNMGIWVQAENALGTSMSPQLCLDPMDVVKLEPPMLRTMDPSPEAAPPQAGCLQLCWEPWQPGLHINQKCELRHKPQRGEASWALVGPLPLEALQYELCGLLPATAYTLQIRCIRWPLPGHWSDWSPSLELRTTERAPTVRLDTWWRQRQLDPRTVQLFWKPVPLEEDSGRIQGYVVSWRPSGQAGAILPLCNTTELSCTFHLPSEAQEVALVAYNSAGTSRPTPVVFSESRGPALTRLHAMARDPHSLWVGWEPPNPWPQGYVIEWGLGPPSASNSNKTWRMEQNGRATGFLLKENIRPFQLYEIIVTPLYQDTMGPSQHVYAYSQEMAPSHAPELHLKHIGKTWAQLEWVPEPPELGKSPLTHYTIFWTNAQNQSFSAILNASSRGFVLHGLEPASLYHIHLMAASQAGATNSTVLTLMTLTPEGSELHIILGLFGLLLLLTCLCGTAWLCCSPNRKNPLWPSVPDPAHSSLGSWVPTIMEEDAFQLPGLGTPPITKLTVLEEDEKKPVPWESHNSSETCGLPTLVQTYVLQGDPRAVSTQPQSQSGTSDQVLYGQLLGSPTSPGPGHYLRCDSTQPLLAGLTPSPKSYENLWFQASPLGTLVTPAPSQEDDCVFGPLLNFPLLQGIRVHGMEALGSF

[2] = target: T1, human G-CSF receptor; remark: listed apart in the source
[3] = target: T1, human G-CSF receptor; remark: listed apart in the source

B1: non-conjugated hG-CSF (Neupogen®) (ligand)
chain: MTPLGPASSLPQSFLLKCLEQVRKIQGDGAALQEKLCATYKLCHPEELVLLGHSLGIPWAPLSSCPSQALQLAGCLSQLHSGLFLYQGLLQALEGISPELGPTLDTLQLDVADFATTIWQQMEELGMAPALQPTQGAMPAFASAFQRRAGGVLVASHLQSFLEVSYRVLRHLAQP
- EC50 [1]: 0.03 nM

B2: G-CSF variant K16/34/40R conjugated to SPA-PEG 12000 (ligand)
chain: TPLGPASSLPQSFLLRCLEQVRKIQGDGAALQERLCATYRLCHPEELVLLGHSLGIPWAPLSSCPSQALQLAGCLSQLHSGLFLYQGLLQALEGISPELGPTLDTLQLDVADFATTIWQQMEELGMAPALQPTQGAMPAFASAFQRRAGGVLVASHLQSFLEVSYRVLRHLAQP
modifications: conjugated to SPA-PEG 12000
- EC50 (% of hG-CSF) conjugated to SPA-PEG 12000 [2]: 10 % of hG-CSF

B3: G-CSF variant K16/34/40R conjugated to SPA-PEG 20000 (ligand)
chain: B2 chain
modifications: conjugated to SPA-PEG 20000
- EC50(% of hG-CSF) conjugated to SPA-PEG 20000 [2]: 1 % of hG-CSF

B4: G-CSF variant K16/34/40R Q90K conjugated to SPA-PEG 20000 (ligand)
chain: B2 chain with Q90K
modifications: conjugated to SPA-PEG 20000
- EC50(% of hG-CSF) conjugated to SPA-PEG 20000 [2]: 7 % of hG-CSF

B5: G-CSF variant K16/34/40R Q70K Q90K conjugated to SPA-PEG 12000 (ligand)
chain: B2 chain with Q70K, Q90K
modifications: conjugated to SPA-PEG 12000
- EC50 (% of hG-CSF) conjugated to SPA-PEG 12000 [2]: 8 % of hG-CSF

B6: G-CSF variant K16/34/40R Q90K T105K conjugated to SPA-PEG 12000 (ligand)
chain: B2 chain with Q90K, T105K
modifications: conjugated to SPA-PEG 12000
- EC50 (% of hG-CSF) conjugated to SPA-PEG 12000 [2]: 1 % of hG-CSF

B7: G-CSF variant K16/34/40R Q90K T105K conjugated to SPA-PEG 20000 (ligand)
chain: B2 chain with Q90K, T105K
modifications: conjugated to SPA-PEG 20000
- EC50(% of hG-CSF) conjugated to SPA-PEG 20000 [2]: < 1 % of hG-CSF

B8: G-CSF variant K16/34/40R T105K S159K conjugated to SPA-PEG 12000 (ligand)
chain: B2 chain with T105K, S159K
modifications: conjugated to SPA-PEG 12000
- EC50 (% of hG-CSF) conjugated to SPA-PEG 12000 [2]: 6 % of hG-CSF

B9: G-CSF variant K16/34/40R T105K S159K conjugated to SPA-PEG 20000 (ligand)
chain: B2 chain with T105K, S159K
modifications: conjugated to SPA-PEG 20000
- EC50(% of hG-CSF) conjugated to SPA-PEG 20000 [2]: 5 % of hG-CSF

B10: G-CSF variant K16/34/40R Q90K T105K S159K conjugated to SPA-PEG 12000 (ligand)
chain: B2 chain with Q90K, T105K, S159K
modifications: conjugated to SPA-PEG 12000
- EC50 (% of hG-CSF) conjugated to SPA-PEG 12000 [2]: 1 % of hG-CSF

B11: G-CSF variant K16/34/40R Q90K T105K S159K conjugated to SPA-PEG 20000 (ligand)
chain: B2 chain with Q90K, T105K, S159K
modifications: conjugated to SPA-PEG 20000
- EC50(% of hG-CSF) conjugated to SPA-PEG 20000 [2]: < 1 % of hG-CSF

B12: G-CSF variant K16/34/40R Q120K S142K conjugated to SPA-PEG 5000 (ligand)
chain: B2 chain with Q120K, S142K
modifications: SPA-PEG 5000 conjugated to the available PEGylation sites
- EC50 (% of hG-CSF) conjugated to SPA-PEG 5000 [3]: 2 % of hG-CSF

B13: G-CSF variant K16/34/40R Q70K Q90K T105K, non-conjugated (ligand)
chain: B2 chain with Q70K, Q90K, T105K
- EC50 (% of hG-CSF) non-conjugated [3]: 10 % of hG-CSF

B14: G-CSF variant K16/34/40R Q70K Q90K T105K conjugated to SPA-PEG 5000 (ligand)
chain: B2 chain with Q70K, Q90K, T105K
modifications: SPA-PEG 5000 conjugated to the available PEGylation sites
- EC50 (% of hG-CSF) conjugated to SPA-PEG 5000 [3]: 4 % of hG-CSF

B15: G-CSF variant K16/34/40R Q70K Q90K Q120K, non-conjugated (ligand)
chain: B2 chain with Q70K, Q90K, Q120K
- EC50 (% of hG-CSF) non-conjugated [3]: 20 % of hG-CSF

From US20030118612A1 (MAXYGEN, published 2003)
